The target of data set [1] is T1, mitochondrial heat shock protein 60 V72I (mtHsp60^V72I) (human, UniProt P10809 53-573, V72I). The data set is described as follows: cryo-EM structure; mtHsp60^V72I 0.2-0.6 mg/ml in ATPase buffer without detergent, 1 mM ATP. To be noted: both partners purified.
The target in data set [2] is T1, mitochondrial heat shock protein 60 …. In words: SEC-MALS; mtHsp60 samples 17 µM monomer, without ATP; Shodex Protein KW-804, room temperature, 20 mM HEPES pH 7.5, 100 mM KCl, 10 mM MgCl2; heptamer to monomers. The note with it: both partners purified. (In general: SEC sorts molecules by how far they enter the pores of the column.)
For the next data set, the target named is mtHsp60 Y201A (human, UniProt P10809 53-573, Y201A). In words: SEC; analytical SEC of each protein alone (mtHsp60 samples 17 µM monomer); Superdex 200 Increase 3.2/300, room temperature, 20 mM HEPES pH 7.5, 100 mM KCl, 10 mM MgCl2. To be noted: both partners purified.
Data set [3] deals with the molecule itself. The description is as above.

Usually stoichiometry N stands for a count of units in the complex or per binding partner.

B1: mitochondrial heat shock protein 60 V72I (mtHsp60^V72I) (natural protein)
chain: AKDVKFGADARALMLQGVDLLADAVAVTMGPKGRTVIIEQSWGSPKVTKDGVTVAKSIDLKDKYKNIGAKLIQDVANNTNEEAGDGTTTATVLARSIAKEGFEKISKGANPVEIRRGVMLAVDAVIAELKKQSKPVTTPEEIAQVATISANGDKEIGNIISDAMKKVGRKGVITVKDGKTLNDELEIIEGMKFDRGYISPYFINTSKGQKCEFQDAYVLLSEKKISSIQSIVPALEIANAHRKPLVIIAEDVDGEALSTLVLNRLKVGLQVVAVKAPGFGDNRKNQLKDMAIATGGAVFGEEGLTLNLEDVQPHDLGKVGEVIVTKDDAMLLKGKGDKAQIEKRIQEIIEQLDVTTSEYEKEKLNERLAKLSDGVAVLKVGGTSDVEVNEKKDRVTDALNATRAAVEEGIVLGGGCALLRCIPALDSLTPANEDQKIGIEIIKRTLKIPAMTIAKNAGVEGSLIVEKIMQSSSEVGYDAMAGDFVNMVEKGIIDPTKVVRTALLDAAGVASLLTTAEVVVTEIPKEEKDPGMGAMGGMGGGMGGGMF
modifications: heptamer in apo state; ATP/Mg2+/K+ gives double-ring tetradecamer; SNA tag scar left out / heptamer in apo state; ATP/Mg2+/K+ gives double-ring tetradecamer; SNA tag scar left out
In the case of B1, the results for the “stoichiometry N” value in data set [1] and in data set [2] were 14 and 7, respectively.

B2: mtHsp60 Y201A (natural protein)
chain: AKDVKFGADARALMLQGVDLLADAVAVTMGPKGRTVIIEQSWGSPKVTKDGVTVAKSIDLKDKYKNIGAKLVQDVANNTNEEAGDGTTTATVLARSIAKEGFEKISKGANPVEIRRGVMLAVDAVIAELKKQSKPVTTPEEIAQVATISANGDKEIGNIISDAMKKVGRKGVITVKDGKTLNDELEIIEGMKFDRGYISPAFINTSKGQKCEFQDAYVLLSEKKISSIQSIVPALEIANAHRKPLVIIAEDVDGEALSTLVLNRLKVGLQVVAVKAPGFGDNRKNQLKDMAIATGGAVFGEEGLTLNLEDVQPHDLGKVGEVIVTKDDAMLLKGKGDKAQIEKRIQEIIEQLDVTTSEYEKEKLNERLAKLSDGVAVLKVGGTSDVEVNEKKDRVTDALNATRAAVEEGIVLGGGCALLRCIPALDSLTPANEDQKIGIEIIKRTLKIPAMTIAKNAGVEGSLIVEKIMQSSSEVGYDAMAGDFVNMVEKGIIDPTKVVRTALLDAAGVASLLTTAEVVVTEIPKEEKDPGMGAMGGMGGGMGGGMF
modifications: at least partly heptameric by SEC; mature numbering + 26 = precursor; SNA tag scar left out / at least partly heptameric by SEC; mature numbering + 26 = precursor; SNA tag scar left out
Take B2: in the data set with mtHsp60 Y201A, the “stoichiometry N” value came to 7.

B3: mitochondrial malate dehydrogenase labelled with fluorescein isothiocyanate (FITC-mtMDH) (enzyme, human, UniProt P40926 25-338, looked up)
chain: AKVAVLGASGGIGQPLSLLLKNSPLVSRLTLYDIAHTPGVAADLSHIETKAAVKGYLGPEQLPDCLKGCDVVVIPAGVPRKPGMTRDDLFNTNATIVATLTAACAQHCPEAMICVIANPVNSTIPITAEVFKKHGVYNPNKIFGVTTLDIVRANTFVAELKGLDPARVNVPVIGGHAGKTIIPLISQCTPKVDFPQDQLTALTGRIQEAGTEVVKAKAGAGSATLSMAYAGARFVFSLVDAMNGKEGVVECSFVKSQETECTYFSTPLLLGKKGIEKNLGIGKVSSFEEKMISDAIPELKASIKKGEDFVKTLK
modifications: FITC (fluorescein isothiocyanate) label, sites not stated
notes: mitochondrial malate dehydrogenase (mtMDH), human; bacterial expression vector Addgene plasmid no; 38792; Used folded (elutes as a dimer) or chemically denatured (6 M guanidine HCl, 10 mM DTT, 1 h); the two states are told apart by the assays; also called FITC-mtMDH^denat (guanidine-denatured form); source: E. coli Rosetta 2(DE3)pLysS, purified (HisTrap, SEC), labelled with FITC
On to B3, for which the “stoichiometry N” value in data set [3] was determined as 2.

Source of the values: article PMC11638070 (Nature Structural & Molecular Biology, 2024).
